# B1: NEK8 (parent)
# chain: YTFGSNQHGQLGTNTRRGSRAPCK
# Variants of: B1
# Experiment: protein stability index of a GFP-peptide fusion (GPS, HEK-293T) (PSI 1-6); higher = more stable
# Details: c terminus: a fixed tail appended
# 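Note: lentivirally expressed fusions sorted by FACS into six bins by GFP to DsRed ratio, PSI derived from sequencing read proportions per bin multiplied by bin number.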
row,Variant,protein stability index
1,YTFGSNQHGQLGTNTRIGSRAPCK [R17I],3.51
2,YTFGSNQHGQLGTNTRKGSRAPCK [R17K],3.73
3,YTFGSNQHGQLGTNTRLGSRAPCK [R17L],3.92
4,YTFGSNQHGQLGTNTRMGSRAPCK [R17M],3.88
5,YTFGSNQHGQLGTNTRNGSRAPCK [R17N],3.97
6,YTFGSNQHGQLGTNTRPGSRAPCK [R17P],3.75
7,YTFGSNQHGQLGTNTRQGSRAPCK [R17Q],4.02
8,YTFGSNQHGQLGTNTRSGSRAPCK [R17S],3.81
9,YTFGSNQHGQLGTNTRTGSRAPCK [R17T],3.65
10,YTFGSNQHGQLGTNTRVGSRAPCK [R17V],3.66
11,YTFGSNQHGQLGTNTRYGSRAPCK [R17Y],3.5
12,YTFGSNQHGQLGTNTRRASRAPCK [G18A],3.33
13,YTFGSNQHGQLGTNTRRCSRAPCK [G18C],3.48
14,YTFGSNQHGQLGTNTRRDSRAPCK [G18D],3.94
15,YTFGSNQHGQLGTNTRRESRAPCK [G18E],3.69
16,YTFGSNQHGQLGTNTRRFSRAPCK [G18F],2.85
17,YTFGSNQHGQLGTNTRRHSRAPCK [G18H],3.52
18,YTFGSNQHGQLGTNTRRISRAPCK [G18I],3.61
19,YTFGSNQHGQLGTNTRRKSRAPCK [G18K],4.05
20,YTFGSNQHGQLGTNTRRLSRAPCK [G18L],3.77
21,YTFGSNQHGQLGTNTRRMSRAPCK [G18M],3.47
22,YTFGSNQHGQLGTNTRRNSRAPCK [G18N],3.81
23,YTFGSNQHGQLGTNTRRPSRAPCK [G18P],3.53
24,YTFGSNQHGQLGTNTRRQSRAPCK [G18Q],3.27

row,Variant,protein stability index
1,YTFGSNQHGQLGTNTRRRSRAPCK [G18R],3.95
2,YTFGSNQHGQLGTNTRRSSRAPCK [G18S],3.43
3,YTFGSNQHGQLGTNTRRTSRAPCK [G18T],4.08
4,YTFGSNQHGQLGTNTRRVSRAPCK [G18V],3.46
5,YTFGSNQHGQLGTNTRRWSRAPCK [G18W],3.23
6,YTFGSNQHGQLGTNTRRYSRAPCK [G18Y],3.26
7,YTFGSNQHGQLGTNTRRGARAPCK [S19A],3.95
8,YTFGSNQHGQLGTNTRRGCRAPCK [S19C],3.08
9,YTFGSNQHGQLGTNTRRGDRAPCK [S19D],4.18
10,YTFGSNQHGQLGTNTRRGERAPCK [S19E],3.72
11,YTFGSNQHGQLGTNTRRGFRAPCK [S19F],3.03
12,YTFGSNQHGQLGTNTRRGGRAPCK [S19G],3.91
13,YTFGSNQHGQLGTNTRRGHRAPCK [S19H],3.95
14,YTFGSNQHGQLGTNTRRGIRAPCK [S19I],3.33
15,YTFGSNQHGQLGTNTRRGKRAPCK [S19K],3.77
16,YTFGSNQHGQLGTNTRRGLRAPCK [S19L],3.82
17,YTFGSNQHGQLGTNTRRGMRAPCK [S19M],4.05
18,YTFGSNQHGQLGTNTRRGNRAPCK [S19N],3.86
19,YTFGSNQHGQLGTNTRRGPRAPCK [S19P],3.89
20,YTFGSNQHGQLGTNTRRGQRAPCK [S19Q],4.02
21,YTFGSNQHGQLGTNTRRGRRAPCK [S19R],3.91
22,YTFGSNQHGQLGTNTRRGTRAPCK [S19T],3.81
23,YTFGSNQHGQLGTNTRRGVRAPCK [S19V],3.77
24,YTFGSNQHGQLGTNTRRGWRAPCK [S19W],2.8

row,Variant,protein stability index
1,YTFGSNQHGQLGTNTRRGYRAPCK [S19Y],3.52
2,YTFGSNQHGQLGTNTRRGSAAPCK [R20A],4.07
3,YTFGSNQHGQLGTNTRRGSCAPCK [R20C],3.33
4,YTFGSNQHGQLGTNTRRGSDAPCK [R20D],3.81
5,YTFGSNQHGQLGTNTRRGSEAPCK [R20E],4.1
6,YTFGSNQHGQLGTNTRRGSFAPCK [R20F],2.85
7,YTFGSNQHGQLGTNTRRGSGAPCK [R20G],3.97
8,YTFGSNQHGQLGTNTRRGSHAPCK [R20H],3.96
9,YTFGSNQHGQLGTNTRRGSIAPCK [R20I],3.52
10,YTFGSNQHGQLGTNTRRGSKAPCK [R20K],4.38
11,YTFGSNQHGQLGTNTRRGSLAPCK [R20L],3.53
12,YTFGSNQHGQLGTNTRRGSMAPCK [R20M],3.15
13,YTFGSNQHGQLGTNTRRGSNAPCK [R20N],4.05
14,YTFGSNQHGQLGTNTRRGSPAPCK [R20P],3.83
15,YTFGSNQHGQLGTNTRRGSQAPCK [R20Q],4.17
16,YTFGSNQHGQLGTNTRRGSSAPCK [R20S],3.55
17,YTFGSNQHGQLGTNTRRGSTAPCK [R20T],3.86
18,YTFGSNQHGQLGTNTRRGSVAPCK [R20V],3.48
19,YTFGSNQHGQLGTNTRRGSWAPCK [R20W],2.21
20,YTFGSNQHGQLGTNTRRGSYAPCK [R20Y],3.07
21,YTFGSNQHGQLGTNTRRGSRCPCK [A21C],2.94
22,YTFGSNQHGQLGTNTRRGSRDPCK [A21D],4.11
23,YTFGSNQHGQLGTNTRRGSREPCK [A21E],4.32
24,YTFGSNQHGQLGTNTRRGSRFPCK [A21F],3.54

row,Variant,protein stability index
1,YTFGSNQHGQLGTNTRRGSRGPCK [A21G],3.7
2,YTFGSNQHGQLGTNTRRGSRHPCK [A21H],3.79
3,YTFGSNQHGQLGTNTRRGSRIPCK [A21I],3.69
4,YTFGSNQHGQLGTNTRRGSRKPCK [A21K],4.24
5,YTFGSNQHGQLGTNTRRGSRLPCK [A21L],3.54
6,YTFGSNQHGQLGTNTRRGSRMPCK [A21M],3.5
7,YTFGSNQHGQLGTNTRRGSRNPCK [A21N],4.1
8,YTFGSNQHGQLGTNTRRGSRPPCK [A21P],3.69
9,YTFGSNQHGQLGTNTRRGSRQPCK [A21Q],3.89
10,YTFGSNQHGQLGTNTRRGSRRPCK [A21R],3.53
11,YTFGSNQHGQLGTNTRRGSRSPCK [A21S],3.84
12,YTFGSNQHGQLGTNTRRGSRTPCK [A21T],4.3
13,YTFGSNQHGQLGTNTRRGSRVPCK [A21V],3.84
14,YTFGSNQHGQLGTNTRRGSRWPCK [A21W],2.69
15,YTFGSNQHGQLGTNTRRGSRYPCK [A21Y],3.38
16,YTFGSNQHGQLGTNTRRGSRAACK [P22A],3.82
17,YTFGSNQHGQLGTNTRRGSRACCK [P22C],3.84
18,YTFGSNQHGQLGTNTRRGSRADCK [P22D],4.13
19,YTFGSNQHGQLGTNTRRGSRAECK [P22E],3.88
20,YTFGSNQHGQLGTNTRRGSRAFCK [P22F],3.66
21,YTFGSNQHGQLGTNTRRGSRAGCK [P22G],4.3
22,YTFGSNQHGQLGTNTRRGSRAHCK [P22H],3.53
